Molecular target: ISSau2 transposase OrfAB (Staphylococcus aureus E48 (ISSau2 in …, UniProt UPI0010FBCD58 1-522, F226L))
Assay: EMSA; Mg2+, excess poly(dI-dC), 0.42 ug OrfAB
Details: protein: recombinant; tags: N-terminal 6-His (pET32a vector fusion); label: biotin end label

B1: IRL42 (dsDNA)
DNA 1: TGAAATGCTCCCTTCAAAGTAGACATTGAAAAAATGAAAACT
DNA 2: AGTTTTCATTTTTTCAATGTCTACTTTGAAGGGAGCATTTCA
binding result: binds
